Data on 15 molecules can be found in US6001988, “High affinity nucleic acid ligands to lectins” (NeXstar Pharmaceuticals, Inc.).

The data set concerns the target T1, wheat germ agglutinin (WGA) (Triticum vulgare, UniProt P10968 P10968:27-197).
T1 sequence: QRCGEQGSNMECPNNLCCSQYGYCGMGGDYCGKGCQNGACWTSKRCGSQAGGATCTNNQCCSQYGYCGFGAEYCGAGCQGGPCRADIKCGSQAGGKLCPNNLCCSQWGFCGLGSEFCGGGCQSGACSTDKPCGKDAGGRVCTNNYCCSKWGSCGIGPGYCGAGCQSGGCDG
The data set is described as follows: filter; HBSS, room temp. The note with it: tags: free lectin, E Y Laboratories, label: 32P. The method, then:
The specifically eluted fraction was processed for use in the following round. Fractions eluted from immobilized WGA were heated at 90° C. for 5 minutes in 1% SDS, 2% β-mercaptoethanol and extracted with phenol/chloroform. RNA was reverse transcribed into cDNA by AMV reverse transcriptase at 48° C. for 60 min in 50 mM Tris-Cl pH (8.3), 60 mM NaCl, 6 mM Mg(OAc)_2, 10 mM DTT, 100 pmol DNA primer, 0.4 mM each of dNTPs, and 0.4 unit/µl AMV RT. […] C) Nitrocellulose Filter Partitioning As described in SELEX Patent Applications, the nitrocellulose filter partitioning method was used to determine the affinity of RNA ligands for WGA and for other proteins. Filter discs (nitrocellulose/cellulose acetate mixed matrix, 0.45 µm pore size, Millipore; or pure nitrocellulose, 0.45 µm pore size, Bio-Rad) were placed on a vacuum manifold and washed with 4 ml of HBSS buffer under vacuum. Reaction mixtures, containing ^32P labeled RNA pools and unlabeled WGA, were incubated in HBSS for 10 min at room temperature, filtered, and then immediately washed with 4 ml HBSS. The filters were air-dried and counted in a Beckman LS6500 liquid scintillation counter without fluor. WGA is a homodimer, molecular weight 43.2 kD, with 4 GlcNAc binding sites per dimer. For affinity calculations, we assume one RNA ligand binding site per monomer (two per dimer). The monomer concentration is defined as 2 times the dimer concentration. The equilibrium dissociation constant, K_d, for an RNA pool or specific ligand that binds monophasically is given by the equation $$K_d=[P_f][R_f]/[RP]$$
The dissociation constants for representative members of families 1–9 and orphan ligands were determined by nitrocellulose filter binding experiments and are listed in Table III. These calculations assume one RNA ligand binding site per WGA monomer.

B1: 6.5 (ssRNA)
RNA: GGGAAAAGCGAAUCAUACACAAGAGUCCCUAGGGAUGCAACGGGCAGCAUUCGCAUAGGAGUAAUCGGAGGUCGCUCCGCCAGAGACCAACCGAGAA
modifications: 2'-NH2 all C and U
As usually defined, the Kd is the free concentration of one partner at which half of the binding sites on the other are occupied at equilibrium, for simple one-to-one binding. Higher therefore signals lower affinity. Take B1: the Kd came to 678 nM. That is a sub-micromolar value.

B2: 11.6 (ssRNA)
RNA: GGGAAAAGCGAAUCAUACACAAGACUGGGGAGCAGGAUAUGAGAUGUGCGGGGCAAUGGAGUCGUGACGAACCGCUCCGCCAGAGACCAACCGAGAA
modifications: 2'-NH2 all C and U
The molecule B2 returned a Kd (hairpin) of 702 nM. That is a sub-micromolar value.

B3: 6.27 (ssRNA)
RNA: GGGAAAAGCGAAUCAUACACAAGAUGCCGGUGGAAAGGCGGGUAGGUGACCCGAGGAUUCCUACCAAGCCAUGCUCCGCCAGAGACCAACCGAGAA
modifications: 2'-NH2 all C and U
Take B3: the Kd came to 56 nM.

B4: 11.29 (ssRNA)
RNA: GGGAAAAGCGAAUCAUACACAAGAACUGAGUAAGGUCUGGCGUGGCAUUAGGUUAGUGGGAGGCUUGGAGUAGGCUCCGCCAGAGACCAACCGAGAA
modifications: 2'-NH2 all C and U
The molecule B4 gave an equilibrium dissociation constant (Kd) of 32 nM.

B5: 6.9 (ssRNA)
RNA: GGGAAAAGCGAAUCAUACACAAGACUCGGCGGGAACGAAGUGUGUGAGUAACGAUCACUUGGUACUAAAAGCCCGCUCCGCCAGAGACCAACCGAGAA
modifications: 2'-NH2 all C and U
Consider B5, for which, where the note is “hairpin”, binding was characterised by a dissociation constant (Kd) of 396 nM.

B6: 6.19 (ssRNA)
RNA: GGGAAAAGCGAAUCAUACACAAGAAUCGAACCUAGGGAUGCAACGGUGAAGGUUGUGAGGAUUCGCCAUUAGGCGCUCCGCCAGAGACCAACCGAGAA
modifications: 2'-NH2 all C and U
The molecule B6 showed a dissociation constant Kd of 74 nM.

B7: 11.8 (ssRNA)
RNA: GGGAAAAGCGAAUCAUACACAAGAAUGGUUGGCCUGGGCGCAGGCUUCGAAGACUCGGCGGGAACGGGAAUGGCUCCGCCAGAGACCAACCGAGAA
modifications: 2'-NH2 all C and U
B7 returned a Kd (hairpin) of 9.2 nM. This lies in the single-digit nanomolar range.

B8: 11.2 (ssRNA)
RNA: GGGAAAAGCGAAUCAUACACAAGACCAACGUACAUCGCGAGCUGGUGGAGAGUUCAUGAGGGUGUUACGGGGUGCUCCGCCAGAGACCAACCGAGAA
modifications: 2'-NH2 all C and U
Regarding B8, binding was put at a Kd of 62 nM. This counts as double-digit nanomolar.

B9: 11.26 (ssRNA)
RNA: GGGAAAAGCGAAUCAUACACAAGAUUGGGCAGGCAGAGCGAGACCGGGGGCUCGGCGGGAACGGAACAGGAAUGCUCCGCCAGAGACCAACCGAGAA
modifications: 2'-NH2 all C and U
As to B9, the Kd (hairpin) is 38 nM.

B10: 11.34 (ssRNA)
RNA: GGGAAAAGCGAAUCAUACACAAGACUCGGCGGGAACGUGAAGUGGGUAGGUAGCUGAAGACGGUCUGGGCGCCAGCUCCGCCAGAGACCAACCGAGAA
modifications: 2'-NH2 all C and U
Molecule B10 registered a Kd (hairpin) of 92 nM.

B11: 11.32 (ssRNA)
RNA: GGGAAAAGCGAAUCAUACACAAGACGUGCGGAGCAAAUAGGGGAUCAUGGAGUCGUACGAACCGUUAUCGCGCUCCGCCAGAGACCAACCGAGAA
modifications: 2'-NH2 all C and U
Consider B11, for which binding (hairpin) was characterised by a dissociation constant (Kd) of 274 nM. Against the preceding molecule, the Kd is about 3-fold higher.

B12: 11.28 (ssRNA)
RNA: GGGAAAAGCGAAUCAUACACAAGAGUUGGUGCGAGCUGGGGCGGCGAGAAGGUAGGCGGUCCGAGUGUUCGAAUGCUCCGCCAGAGACCAACCGAGAA
modifications: 2'-NH2 all C and U
Molecule B12 registered a Kd (possible G-quartet (speculative)) of 9.2 nM.

B13: 11.5 (ssRNA)
RNA: GGGAAAAGCGAAUCAUACACAAGAACAAGGAUCGAUGGCGAGCCGGGGAGGGCUCGGCGGGAACGAAAUCUGCUCCGCCAGAGACCAACCGAGAA
modifications: 2'-NH2 all C and U
In turn, B13 showed a Kd (hairpin) of 44 nM. In other words, the double-digit nanomolar range.

B14: 11.15 (ssRNA)
RNA: GGGAAAAGCGAAUCAUACACAAGACUCGGCGGGAACGAAAGUGUCAUGGUAGCAAGUCCAAUGGUGGACUCUGCUCCGCCAGAGACCAACCGAGAA
modifications: 2'-NH2 all C and U
As to B14, binding (hairpin) was characterised by a dissociation constant (Kd) of 54 nM. This Kd and that of the molecule before are within 1.5-fold of each other.

B15: 6.3 (ssRNA)
RNA: GGGAAAAGCGAAUCAUACACAAGAGAUACAGCGCGGGUCUAAAGACCUUGCCCCUAGGAUGCAACGGGGUGGCUCCGCCAGAGACCAACCGAGAA
modifications: 2'-NH2 all C and U
Turning to B15, the Kd is 120 nM.
